These results are taken from article PMC2191135.

This experiment deals with platelet membrane GPIIb-IIIa complex (alpha IIb/beta 3 integrin) (human (endogenous in platelets)) (UniProt P08514). Briefly: radioligand binding.

B1: arginine, glycine, aspartic acid (RGDS) (peptide)
peptide: RGDS
The molecule B1 showed a % inhibition of fibrinogen binding at 100 uM RGDS of 92%.
